From patent US20220010021A1 (Sanofi, published 2022)

Legend:
Assay in all cases: cell-based or functional assay
[1] = target: human FGFR1c/KLB cell surface receptor complex on iLite FGF21 reporter cells (human, UniProt P11362 22-822; Q86Z14 1-1044)
[2] = target: human FGFR1c/KLB receptor complex on iLite FGF21 Assay Ready Cells (human, UniProt P11362 22-822; Q86Z14 1-1044)
[3] = target: cell surface receptor composed of FGFR1c and co-receptor beta-Klotho (KLB) (human, UniProt P11362 22-822; Q86Z14 1-1044)
cell surface receptor composed of FGFR1c and co-receptor beta-Klotho (KLB), sequence (P11362 22-822, chain 1 of 2): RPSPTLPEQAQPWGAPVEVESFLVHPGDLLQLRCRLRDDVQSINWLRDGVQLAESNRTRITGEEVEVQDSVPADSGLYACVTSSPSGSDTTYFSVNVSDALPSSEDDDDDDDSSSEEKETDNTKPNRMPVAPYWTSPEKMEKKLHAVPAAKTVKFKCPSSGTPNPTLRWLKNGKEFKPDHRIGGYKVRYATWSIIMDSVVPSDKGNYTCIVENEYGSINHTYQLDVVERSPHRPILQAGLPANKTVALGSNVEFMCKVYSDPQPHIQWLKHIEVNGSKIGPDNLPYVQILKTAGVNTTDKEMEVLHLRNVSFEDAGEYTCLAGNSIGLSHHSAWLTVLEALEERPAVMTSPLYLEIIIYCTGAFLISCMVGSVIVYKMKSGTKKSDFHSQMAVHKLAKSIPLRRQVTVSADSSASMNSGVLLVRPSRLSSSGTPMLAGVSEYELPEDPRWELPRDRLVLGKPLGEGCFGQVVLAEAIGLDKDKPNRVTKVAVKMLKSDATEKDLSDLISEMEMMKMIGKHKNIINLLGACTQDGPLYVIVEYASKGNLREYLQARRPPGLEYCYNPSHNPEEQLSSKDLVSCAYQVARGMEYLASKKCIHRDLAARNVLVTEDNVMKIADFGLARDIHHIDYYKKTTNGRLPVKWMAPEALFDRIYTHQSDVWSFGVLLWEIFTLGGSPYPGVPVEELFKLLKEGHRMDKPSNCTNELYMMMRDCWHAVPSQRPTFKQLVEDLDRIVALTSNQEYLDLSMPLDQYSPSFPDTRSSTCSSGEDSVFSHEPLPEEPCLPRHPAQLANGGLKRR
cell surface receptor composed of FGFR1c and co-receptor beta-Klotho (KLB), sequence (Q86Z14 whole entry, chain 2 of 2): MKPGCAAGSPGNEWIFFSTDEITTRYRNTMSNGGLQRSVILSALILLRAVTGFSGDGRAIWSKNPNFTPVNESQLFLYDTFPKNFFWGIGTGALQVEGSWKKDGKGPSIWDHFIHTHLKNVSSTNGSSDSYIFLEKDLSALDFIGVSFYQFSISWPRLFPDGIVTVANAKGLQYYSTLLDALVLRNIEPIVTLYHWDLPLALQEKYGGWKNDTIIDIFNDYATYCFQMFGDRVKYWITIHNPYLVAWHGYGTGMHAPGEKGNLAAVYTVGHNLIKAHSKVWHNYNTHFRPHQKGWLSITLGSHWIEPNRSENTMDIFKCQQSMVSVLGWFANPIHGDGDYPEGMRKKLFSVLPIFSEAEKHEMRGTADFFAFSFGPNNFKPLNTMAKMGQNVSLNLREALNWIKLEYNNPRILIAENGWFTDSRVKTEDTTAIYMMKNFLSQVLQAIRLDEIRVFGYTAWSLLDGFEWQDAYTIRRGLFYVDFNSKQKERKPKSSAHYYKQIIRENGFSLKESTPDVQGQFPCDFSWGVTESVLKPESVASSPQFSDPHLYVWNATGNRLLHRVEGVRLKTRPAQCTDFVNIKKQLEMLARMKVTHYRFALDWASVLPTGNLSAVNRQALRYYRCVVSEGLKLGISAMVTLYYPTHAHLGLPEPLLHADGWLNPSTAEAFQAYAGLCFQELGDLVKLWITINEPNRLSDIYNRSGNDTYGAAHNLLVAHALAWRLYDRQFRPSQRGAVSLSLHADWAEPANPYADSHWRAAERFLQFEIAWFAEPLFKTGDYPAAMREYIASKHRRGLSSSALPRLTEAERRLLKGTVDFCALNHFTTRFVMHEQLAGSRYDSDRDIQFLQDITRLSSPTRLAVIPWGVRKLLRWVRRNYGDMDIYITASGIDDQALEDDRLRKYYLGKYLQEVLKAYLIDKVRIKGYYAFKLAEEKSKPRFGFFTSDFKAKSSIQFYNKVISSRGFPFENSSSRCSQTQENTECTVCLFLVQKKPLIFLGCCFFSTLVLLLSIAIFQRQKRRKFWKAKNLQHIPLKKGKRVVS
For Mean E max (%) in this document: reference of the scale not given here.
For Mean E max, Luciferase reporter gene assay in this document: reference of the scale not given here.

human FGFR1c/KLB cell surface receptor complex on iLite FGF21 reporter cells, sequence (P11362 22-822, chain 1 of 2): as the sequence (P11362 22-822, chain 1 of 2) above
human FGFR1c/KLB cell surface receptor complex on iLite FGF21 reporter cells, sequence (Q86Z14 whole entry, chain 2 of 2): as the sequence (Q86Z14 whole entry, chain 2 of 2) above
human FGFR1c/KLB receptor complex on iLite FGF21 Assay Ready Cells, sequence (P11362 22-822, chain 1 of 2): as the sequence (P11362 22-822, chain 1 of 2) above
human FGFR1c/KLB receptor complex on iLite FGF21 Assay Ready Cells, sequence (Q86Z14 whole entry, chain 2 of 2): as the sequence (Q86Z14 whole entry, chain 2 of 2) above

Binder | Mean E max (%) [1] [%] | Mean E max (%) [2] [%] | further results
16H7 variant, light chain P54A (antibody, human IgG4 S228P, lambda, V domains shown) VH: not shown VL: SYVLTQPPSVSVAPGQTARITCGGNNIGSESVHWYQQKPGQAPVLVVYDDSDRASGIPERFSGSNSGNTATLTISRVEAGDEADYYCQVWDGNSDHVVFGGGTKLTVLG | 105 |  | 
16H7 variant, light chain R53V (antibody, human IgG4 S228P, lambda, V domains shown) VH: not shown VL: SYVLTQPPSVSVAPGQTARITCGGNNIGSESVHWYQQKPGQAPVLVVYDDSDVPSGIPERFSGSNSGNTATLTISRVEAGDEADYYCQVWDGNSDHVVFGGGTKLTVLG | 101 |  | 
16H7 variant, light chain Q88S (antibody, human IgG4 S228P, lambda, V domains shown) VH: not shown VL: SYVLTQPPSVSVAPGQTARITCGGNNIGSESVHWYQQKPGQAPVLVVYDDSDRPSGIPERFSGSNSGNTATLTISRVEAGDEADYYCSVWDGNSDHVVFGGGTKLTVLG | 104 |  | 
16H7 variant with light chain substitution P54A (antibody, V domains shown) VH: not shown VL: SYVLTQPPSVSVAPGQTARITCGGNNIGSESVHWYQQKPGQAPVLVVYDDSDRASGIPERFSGSNSGNTATLTISRVEAGDEADYYCQVWDGNSDHVVFGGGTKLTVLG |  | 105 | 
16H7 variant, light chain S55A (antibody, human IgG4 S228P, lambda, V domains shown) VH: not shown VL: SYVLTQPPSVSVAPGQTARITCGGNNIGSESVHWYQQKPGQAPVLVVYDDSDRPAGIPERFSGSNSGNTATLTISRVEAGDEADYYCQVWDGNSDHVVFGGGTKLTVLG | 110 |  | 
16H7 variant with light chain substitution R53N (antibody, V domains shown) VH: not shown VL: SYVLTQPPSVSVAPGQTARITCGGNNIGSESVHWYQQKPGQAPVLVVYDDSDNPSGIPERFSGSNSGNTATLTISRVEAGDEADYYCQVWDGNSDHVVFGGGTKLTVLG |  | 100 | 
16H7 variant, light chain R53N (antibody, human IgG4 S228P, lambda, V domains shown) VH: not shown VL: SYVLTQPPSVSVAPGQTARITCGGNNIGSESVHWYQQKPGQAPVLVVYDDSDNPSGIPERFSGSNSGNTATLTISRVEAGDEADYYCQVWDGNSDHVVFGGGTKLTVLG | 100 |  | 
16H7 light chain variant S29Y (antibody, human IgG4 S228P, lambda, V domains shown) VH: not shown VL: SYVLTQPPSVSVAPGQTARITCGGNNIGYESVHWYQQKPGQAPVLVVYDDSDRPSGIPERFSGSNSGNTATLTISRVEAGDEADYYCQVWDGNSDHVVFGGGTKLTVLG |  |  | Mean E max, Luciferase reporter gene assay [3]: 102%
16H7 light chain variant G28V (antibody, human IgG4 S228P, lambda, V domains shown) VH: not shown VL: SYVLTQPPSVSVAPGQTARITCGGNNIVSESVHWYQQKPGQAPVLVVYDDSDRPSGIPERFSGSNSGNTATLTISRVEAGDEADYYCQVWDGNSDHVVFGGGTKLTVLG |  |  | Mean E max, Luciferase reporter gene assay [3]: 97%
16H7 variant with light chain substitution S55A (antibody, V domains shown) VH: not shown VL: SYVLTQPPSVSVAPGQTARITCGGNNIGSESVHWYQQKPGQAPVLVVYDDSDRPAGIPERFSGSNSGNTATLTISRVEAGDEADYYCQVWDGNSDHVVFGGGTKLTVLG |  | 110 | 
16H7 variant with light chain substitution R53V (antibody, V domains shown) VH: not shown VL: SYVLTQPPSVSVAPGQTARITCGGNNIGSESVHWYQQKPGQAPVLVVYDDSDVPSGIPERFSGSNSGNTATLTISRVEAGDEADYYCQVWDGNSDHVVFGGGTKLTVLG |  | 101 | 
16H7 variant with light chain substitution S51F (antibody, V domains shown) VH: not shown VL: SYVLTQPPSVSVAPGQTARITCGGNNIGSESVHWYQQKPGQAPVLVVYDDFDRPSGIPERFSGSNSGNTATLTISRVEAGDEADYYCQVWDGNSDHVVFGGGTKLTVLG |  | 100 | Mean EC50 [2]: 0.12 nM
16H7 light chain variant G28Q (antibody, human IgG4 S228P, lambda, V domains shown) VH: not shown VL: SYVLTQPPSVSVAPGQTARITCGGNNIQSESVHWYQQKPGQAPVLVVYDDSDRPSGIPERFSGSNSGNTATLTISRVEAGDEADYYCQVWDGNSDHVVFGGGTKLTVLG |  |  | Mean E max, Luciferase reporter gene assay [3]: 104%
